The target in this test is 抗Fasモノクローナル抗体HFE7A(マウス−マウスハイブリドーマHFE7A、FERM BP−5828が産生). The experiment in a line: 200 µg peptide pre-incubated with 0.25 µg HFE7A, then flow cytometry on WR19L12a cells; D355-364 control set to 100 % fluorescence. For orientation: Flow cytometry measures light scatter and fluorescence of single cells or particles in a stream.

Data on 2 molecules can be found in patent publication JP2000169393A.

B1: 合成ペプチドP100 (peptide)
peptide: EINCTRTQNT
As for B1, the HFE7AとWR19L12a細胞との結合の阻害(%) is 50 %.

B2: 合成ペプチドP110 (peptide)
peptide: KCRCKPNFFC
Regarding B2, the HFE7AとWR19L12a細胞との結合の阻害(%) was 60 %.
